Assays:
human cc-KDM4A = biological target: T1, human cc-KDM4A (Homo sapiens, UniProt O75164); assay: FDH-assay enzyme kinetics of H3 peptide demethylation, truncated KDM4A; type: biochemical; settings: for K m / k cat / k cat /K m / demethylation / catalytic activity (in words): FDH-assay; for K m: 50 mM HEPES (pH 7.5), 50 mM NaCl, 50 µM FeSO4, 500 µM α-KG, 500 µM ascorbate, 2 mM NAD, substrate 10–1000 µM, NADH fluorescence 15–30 minutes; for K m / k cat / k cat /K m: triplicate; for k cat / k cat /K m: pH 7.5; for k cat: NADH fluorescence; for k cat /K m: SD by propagation of errors, unit: min^−1 * µM^−1 * 10^3; for demethylation / catalytic activity (in words): compared to H3(1–24)K9me3 where a change is stated
T1 construct: Truncated constructs of KDM4A and KDM4C containing only the catalytic cores (cc-KDM4A/cc-KDM4C); made in house
T1 sequence (O75164 1-350 limits assumed): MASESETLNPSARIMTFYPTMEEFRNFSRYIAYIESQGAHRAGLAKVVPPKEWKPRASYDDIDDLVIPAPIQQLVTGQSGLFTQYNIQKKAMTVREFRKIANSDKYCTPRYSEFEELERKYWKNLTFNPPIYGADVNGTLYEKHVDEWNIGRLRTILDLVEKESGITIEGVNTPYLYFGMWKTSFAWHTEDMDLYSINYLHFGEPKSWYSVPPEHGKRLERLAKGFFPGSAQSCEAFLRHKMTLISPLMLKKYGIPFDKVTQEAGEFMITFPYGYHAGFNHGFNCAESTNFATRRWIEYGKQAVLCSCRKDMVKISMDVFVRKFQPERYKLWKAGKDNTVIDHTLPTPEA
Method: (§1) The enzyme kinetics were measured using a Formaldehyde DeHydrogenase Assay (FDH-Assay) and the demethylation of substrates was confirmed when possible by MALDI-TOF-MS, see File S1 for details. The test solution contained 50 mM HEPES (pH 7.5), 50 mM NaCl, 50 µM FeSO4, 500 µM α-KG, 500 µM ascorbate, 2 mM NAD, approximately 0.05 unit of FDH and e.g. 4.88 µM KDM4C (enzyme concentration varied between batches). The reference solution was comprised of the same except substrate. The assay was initiated by adding various concentrations of H3 peptide substrates e.g. H3(1–24)K9me3 (10–1000 µM) and the increase in NADH fluorescence was measured over 15–30 minutes in 30 second intervals. Data analysis and kinetic values were obtained using programs Excel and GraphPad Prism® 5.0. For details, see File S1.
(§2) The standard deviations for k cat/K m were calculated using the statistic law of propagation of errors. Standard errors for Michaelis-Menten Kinetics were automatically given in GraphPad Prism®, with a 95% confidence interval. All enzyme kinetic curves were done in triplicate unless otherwise stated.
(§3) Test for activity of enzyme using the fluorescence FDH assay, determination of Vmax and Km of enzymes with substrate, expression and purification of cc-KDM4A and cc-KDM4C software and parameters for the FDH coupled assay, see Lohse et al.^21
(§4) The standard deviations for kcat/ Km were calculated using the statistic law of propagation of errors. Standard errors for Michaelis-Menten Kinetics were automatically given in GraphPad Prism®, with a 95 % confidence interval. All enzyme kinetic curves were done in triplicate unless otherwise stated.

human cc-KDM4C = biological target: T2, human cc-KDM4C (Homo sapiens, UniProt Q9H3R0); assay: FDH-assay enzyme kinetics of H3 peptide demethylation, truncated KDM4C; type: biochemical; settings: for K m / demethylation / catalytic activity (in words) / k cat / k cat /K m: FDH-assay; for K m: 50 mM HEPES (pH 7.5), 50 mM NaCl, 50 µM FeSO4, 500 µM α-KG, 500 µM ascorbate, 2 mM NAD, substrate 10–1000 µM, e.g. 4.88 µM KDM4C, NADH fluorescence 15–30 minutes; for K m / k cat: triplicate; for demethylation / catalytic activity (in words): compared to H3(1–24)K9me3 where a change is stated; for k cat: pH 7.5, NADH fluorescence; for k cat /K m: pH 7.5, triplicate, SD by propagation of errors, unit: (min^−1 * µM^−1) * 10^3; for fold decrease in catalytic activity (k cat/K m): compared to H3(1–24)K9me3
T2 construct: Truncated constructs of KDM4A and KDM4C containing only the catalytic cores (cc-KDM4A/cc-KDM4C); made in house
T2 sequence (Q9H3R0 1-349 limits assumed): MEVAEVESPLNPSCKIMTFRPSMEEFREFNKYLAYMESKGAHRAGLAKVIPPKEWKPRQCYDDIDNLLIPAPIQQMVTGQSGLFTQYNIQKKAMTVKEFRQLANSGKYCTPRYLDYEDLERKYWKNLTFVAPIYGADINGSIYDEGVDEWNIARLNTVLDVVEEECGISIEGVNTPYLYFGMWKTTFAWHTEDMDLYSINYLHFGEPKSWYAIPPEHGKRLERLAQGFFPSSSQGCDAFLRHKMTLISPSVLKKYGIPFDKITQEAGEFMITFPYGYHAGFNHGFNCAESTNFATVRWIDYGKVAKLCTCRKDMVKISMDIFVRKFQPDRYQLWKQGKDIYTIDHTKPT
Method: as §1, §2, §3, §4

PHF8 = PHF8 with PHD domain; ref [5]; cited from earlier work
Description: The enzyme kinetics of FL-KDM4A and ...

Row | Substance | fold difference in catalytic activity between cc-KDM4A and cc-KDM4C (human cc-KDM4A; cc-KDM4A versus cc-KDM4C) | K m (human cc-KDM4A; cc-KDM4A) | k cat (human cc-KDM4A; cc-KDM4A) | k cat /K m (human cc-KDM4A; cc-KDM4A) | demethylation / catalytic activity (in words) (human cc-KDM4A; cc-KDM4A) | fold increase in k cat/K m (human cc-KDM4A; cc-KDM4A, compared to H3(1–24)K9me3) | K m (human cc-KDM4C) | demethylation / catalytic activity (in words) (human cc-KDM4C) | k cat (human cc-KDM4C) | k cat /K m (human cc-KDM4C) | fold decrease in catalytic activity (k cat/K m) (human cc-KDM4C) | change of K m (PHF8) | change of k cat (PHF8)
1 | H3(1–24)K9me3K14(ac): histone peptide containing H3K9me3 in combination with acetylation of K14 | 10 fold | 33±4 | 1.0±0.03 | 30.3±3.8 | an increase in the enzymatic catalytic efficiency | 3 fold | 35.2±20 | a decrease | 0.1±0.01 | 2.8±0.2 | 3 fold |  | 
2 | H3(1–24)K4me3-K9me2: H3(1–24) substrate with trimethylated K4 and dimethylated K9 |  |  |  |  |  |  |  |  |  |  |  | a decrease in K m | an increase in k cat
3 | H3(1–24)T3(ph)K9me3: phosphorylation of threonine 3 in combination with lysine 9 trimethylation |  | 162±15 | 1.2±0.04 | 7.4±0.7 | did not prevent demethylation |  | 207±50 | did not prevent demethylation | 0.38±0.04 | 1.8±0.1 | 5 fold |  | 
